The target of one data set is MYC 304-354 WT (RBRIII) (UniProt P01106-1 304-354). The data set can be described thus: fluorescence anisotropy. On the technique in general: Fluorescence polarisation rises when a labelled molecule tumbles more slowly, as on binding a larger partner.
Another data set addresses MYC 304-354 RBRIIIMUT (UniProt P01106-1 304-354, R316A;K317A;R331A;R334A;R340A;K341A). Put plainly: fluorescence anisotropy.

Chain of MYC 304-354 WT (RBRIII) (P01106 319-369): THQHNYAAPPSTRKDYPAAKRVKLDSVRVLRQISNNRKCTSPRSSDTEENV

B1: PTDSS2 RNA oligo (ssRNA)
RNA: GUGCAUGGGCAUGUGUGCUGUGUGUGUGCAGGCGACCGUAAACA
Consider B1, for which the binding result with MYC 304-354 WT (RBRIII) is “binds”; with MYC 304-354 RBRIIIMUT it was “no binding”.

The record behind these values is paper doi:10.1101/2024.12.06.627168.
